This note sets out measurements from patent US7087392B2, “Antiproliferative SgK reagents and methods” (The Regents of the University of California, priority 1999, dated 2006).

Test [1] deals with T1, epithelial sodium channel (ENaC) (Xenopus laevis, UniProt P51167+P51169+P51171).
T1 construct: expressed in transfected cells; host or cells: Xenopus laevis oocytes (co-expression with Sgk)
T1 sequence (P51167 1-632): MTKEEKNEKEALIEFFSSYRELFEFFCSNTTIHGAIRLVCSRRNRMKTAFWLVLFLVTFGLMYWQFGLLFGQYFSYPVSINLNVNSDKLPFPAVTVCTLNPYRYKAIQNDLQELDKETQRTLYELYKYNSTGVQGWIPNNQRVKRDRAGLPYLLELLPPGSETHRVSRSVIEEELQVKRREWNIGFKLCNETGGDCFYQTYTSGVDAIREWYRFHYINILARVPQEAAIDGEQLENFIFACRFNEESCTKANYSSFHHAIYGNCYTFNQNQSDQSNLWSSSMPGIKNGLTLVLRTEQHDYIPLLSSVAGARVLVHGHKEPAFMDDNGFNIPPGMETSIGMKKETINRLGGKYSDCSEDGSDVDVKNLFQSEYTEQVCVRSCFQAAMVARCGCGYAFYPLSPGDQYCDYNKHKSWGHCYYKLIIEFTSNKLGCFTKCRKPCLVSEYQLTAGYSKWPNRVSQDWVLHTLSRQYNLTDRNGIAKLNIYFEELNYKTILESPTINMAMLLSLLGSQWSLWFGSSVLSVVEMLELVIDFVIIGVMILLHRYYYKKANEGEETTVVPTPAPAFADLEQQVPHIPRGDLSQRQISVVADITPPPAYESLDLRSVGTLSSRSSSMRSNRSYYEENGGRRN
T1 sequence (P51169 1-647): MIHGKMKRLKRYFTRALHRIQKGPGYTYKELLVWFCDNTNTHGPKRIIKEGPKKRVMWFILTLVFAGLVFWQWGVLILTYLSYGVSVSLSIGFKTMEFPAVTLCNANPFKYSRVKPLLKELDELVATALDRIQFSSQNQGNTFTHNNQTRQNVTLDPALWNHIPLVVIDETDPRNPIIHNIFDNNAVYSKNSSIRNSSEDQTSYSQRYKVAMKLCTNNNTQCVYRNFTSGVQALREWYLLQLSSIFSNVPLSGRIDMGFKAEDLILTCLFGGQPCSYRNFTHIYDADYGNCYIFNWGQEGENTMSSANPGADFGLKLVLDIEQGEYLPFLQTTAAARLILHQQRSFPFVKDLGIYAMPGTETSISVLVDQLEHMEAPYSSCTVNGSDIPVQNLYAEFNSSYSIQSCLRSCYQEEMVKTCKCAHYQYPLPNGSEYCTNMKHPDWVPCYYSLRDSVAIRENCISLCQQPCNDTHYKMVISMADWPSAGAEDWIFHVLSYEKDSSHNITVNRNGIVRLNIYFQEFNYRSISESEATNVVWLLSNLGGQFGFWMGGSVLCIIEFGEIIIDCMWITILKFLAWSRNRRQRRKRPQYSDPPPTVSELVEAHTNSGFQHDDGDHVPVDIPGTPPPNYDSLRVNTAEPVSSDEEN
T1 sequence (P51171 1-660): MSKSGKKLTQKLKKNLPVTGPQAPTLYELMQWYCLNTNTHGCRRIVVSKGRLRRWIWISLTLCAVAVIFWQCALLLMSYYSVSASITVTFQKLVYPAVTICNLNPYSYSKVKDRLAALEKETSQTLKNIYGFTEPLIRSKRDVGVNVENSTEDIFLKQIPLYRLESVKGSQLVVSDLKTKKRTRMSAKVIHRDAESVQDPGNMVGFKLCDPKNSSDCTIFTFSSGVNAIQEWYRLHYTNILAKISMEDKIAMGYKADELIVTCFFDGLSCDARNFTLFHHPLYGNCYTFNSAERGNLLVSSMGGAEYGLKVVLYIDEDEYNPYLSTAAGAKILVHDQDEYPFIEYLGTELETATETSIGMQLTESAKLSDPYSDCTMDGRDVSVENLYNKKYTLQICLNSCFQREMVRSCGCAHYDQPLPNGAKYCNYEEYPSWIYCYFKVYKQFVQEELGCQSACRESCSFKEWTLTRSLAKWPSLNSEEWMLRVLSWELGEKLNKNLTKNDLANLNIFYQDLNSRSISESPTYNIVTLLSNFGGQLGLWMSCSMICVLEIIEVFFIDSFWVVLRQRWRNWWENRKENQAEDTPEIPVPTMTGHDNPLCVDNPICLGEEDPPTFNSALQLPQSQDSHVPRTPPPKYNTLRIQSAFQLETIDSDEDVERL
Put plainly: Epithelial sodium channel activity after co-expression in oocytes. In kind it is cell-based. The source says:
Identification of Sgk-interacting proteins that may connect Sgk to the cellular stress response. Using the yeast two-hybrid genetic screening strategy discussed earlier, we also identified IF-1, which is a negative regulator of the mitochondrial F1 ATPase pump, as an Sgk-interacting protein. […] Furthermore, cell lysates containing endogenous Sgk induced in response to glucocorticoids, serum, hyperosmotic stress or UV radiation interacted specifically with the GST-IF1 fusion protein but not with GST alone, as assessed by anti-sgk immunoblotting. […] We disclose that in response to genotoxic or hormonal stress cues, high levels of Sgk protein are produced, which then binds to the IF1 ATPase inhibitor, thus activating the mitochondrial F1 ATPase. We have also shown that Sgk activates the epithelial sodium channel (ENaC) after their co-expression in Xenopus Laevis oocytes. […] These observations indicate that one function of Sgk is to regulate cell volume following osmotic stress of the cells. […] Intriguingly, the cytoplasmic domains of the ENaC beta subunit contain amino acid sequences surrounding a serine that indicate it is an endogenous substrate for Sgk. Previous studies have shown that both the beta and gamma subunits of EnaC are phosphorylated (Shimkets, R. A.,et al. 1998. Proc Natl Acad Sci USA 95:3301–5).

A further test has as its system mammary epithelial cells. Nature of the test: Co-staining for ectopically expressed Sgk and apoptotic cells (TUNEL fluorescence assay). It counts as cell-based. The conditions noted are these: after hyperosmotic stress, ectopic expression.

B1: K127M: Sgk with lysine 127 in the ATP binding domain substituted with methionine; kinase dead (protein, UniProt O00141 1-431, looked up, variant K127M)
Serine/threonine-protein …: MTVKTEAAKGTLTYSRMRGMVAILIAFMKQRRMGLNDFIQKIANNSYACKHPEVQSILKISQPQEPELMNANPSPPPSPSQQINLGPSSNPHAKPSDFHFLKVIGKGSFGKVLLARHKAEEVFYAVMVLQKKAILKKKEEKHIMSERNVLLKNVKHPFLVGLHFSFQTADKLYFVLDYINGGELFYHLQRERCFLEPRARFYAAEIASALGYLHSLNIVYRDLKPENILLDSQGHIVLTDFGLCKENIEHNSTTSTFCGTPEYLAPEVLHKQPYDRTVDWWCLGAVLYEMLYGLPPFYSRNTAEMYDNILNKPLQLKPNITNSARHLLEGLLQKDRTKRLGAKDDFMEIKSHVFFSLINWDDLINKKITPPFNPNVSGPNDLRHFDPEFTEEPVPNSIGKSPDSVLVTASVKEAAEAFLGFSYAPPTDSFL
For B1, the “basal ENaC activity” value in test [1] is listed as “inhibiting the basal EnaC activity”. For the same molecule, the “correlation between Sgk positive and TUNEL positive cells” value in the test on mammary epithelial cells is reported as around 55%.
